Measured values reported in the RNAGym collection of RNA variant scans (doi:10.7554/elife.80360).

B1: Twister Ribozyme (parent)
chain: AACACUGCCAAUGCCGGUCCCAAGCCCGGAUAAAAGUGGAGGGGGCGG

Variants of: B1
Experiment: self-cleavage, relative activity (ratio to wild type); higher = more cleavage; co-transcriptional

Q: For A11C A32U, which self-cleavage is on record?
A: 0.831

Q: With A11C C21A as the variant, how does the self-cleavage read?
A: 0.0812

Q: Which self-cleavage does the source give for G17C G45U here?
A: 0.107

Q: Which self-cleavage does the source give for U31C G43A here?
A: 0.323

Q: With A34U G43U as the variant, how does the self-cleavage read?
A: 0.193

Q: Which self-cleavage does the source give for C27A G45A here?
A: 0.334

Q: Which self-cleavage does the source give for C3G C27A here?
A: 0.0737

Q: With C15G A30U as the variant, how does the self-cleavage read?
A: 0.108

Q: For A4U G17C, which self-cleavage is on record?
A: 0.0361

Q: With G36A G41C as the variant, how does the self-cleavage read?
A: 0.133

Q: With A10C U12A as the variant, how does the self-cleavage read?
A: 1.24

Q: For C26G G42C, which self-cleavage is on record?
A: 0.139

Q: Which self-cleavage does the source give for A33C G48U here?
A: 1.04

Q: For A30C A33C, which self-cleavage is on record?
A: 0.676

Q: Which self-cleavage does the source give for C25G C27A here?
A: 0.105

Q: With A35U G43C as the variant, how does the self-cleavage read?
A: 0.208

Q: With C8G A11C as the variant, how does the self-cleavage read?
A: 0.55

Q: With A4U G39A as the variant, how does the self-cleavage read?
A: 0.0691

Q: For C3G A4C, which self-cleavage is on record?
A: 0.114

Q: For G7A G13C, which self-cleavage is on record?
A: 0.0492

Q: With A10C A35C as the variant, how does the self-cleavage read?
A: 1.08

Q: Which self-cleavage does the source give for A10G A33C here?
A: 1.03

Q: With G13A G38A as the variant, how does the self-cleavage read?
A: 0.581

Q: Which self-cleavage does the source give for A23U A35C here?
A: 0.71

Q: With G13A A30G as the variant, how does the self-cleavage read?
A: 0.742

Q: With C25U C46U as the variant, how does the self-cleavage read?
A: 0.75

Q: With G44C G45C as the variant, how does the self-cleavage read?
A: 0.54

Q: With C15A G38U as the variant, how does the self-cleavage read?
A: 0.355

Q: For A23U A33G, which self-cleavage is on record?
A: 0.18

Q: Which self-cleavage does the source give for A10G U12G here?
A: 1.07

Q: For G7A G28A, which self-cleavage is on record?
A: 0.215

Q: With C26G A34G as the variant, how does the self-cleavage read?
A: 0.0982

Q: Which self-cleavage does the source give for G17A G48C here?
A: 0.724

Q: Which self-cleavage does the source give for C20A G41U here?
A: 0.0817

Q: For A23U G44C, which self-cleavage is on record?
A: 0.578

Q: With A1G A23U as the variant, how does the self-cleavage read?
A: 0.296

Q: For C19U G44A, which self-cleavage is on record?
A: 1.03

Q: For A30C G44U, which self-cleavage is on record?
A: 0.793

Q: With A1G C46U as the variant, how does the self-cleavage read?
A: 0.393

Q: Which self-cleavage does the source give for G24C G39C here?
A: 0.0715

Q: With C9G A10C as the variant, how does the self-cleavage read?
A: 0.857

Q: For A23C A34C, which self-cleavage is on record?
A: 0.161

Q: For C9U G43A, which self-cleavage is on record?
A: 0.137

Q: Which self-cleavage does the source give for G16A A22C here?
A: 0.941

Q: For A11U C26U, which self-cleavage is on record?
A: 0.69

Q: Which self-cleavage does the source give for C20A U37G here?
A: 0.109

Q: Which self-cleavage does the source give for A11U A23C here?
A: 0.241

Q: With A4G C27U as the variant, how does the self-cleavage read?
A: 0.74

Q: With C9U G38U as the variant, how does the self-cleavage read?
A: 0.395

Q: For C5U A34C, which self-cleavage is on record?
A: 0.166

Q: For G24A U37G, which self-cleavage is on record?
A: 0.0506

Q: For A1C U18C, which self-cleavage is on record?
A: 0.17

Q: For U18G G44U, which self-cleavage is on record?
A: 0.0806

Q: For A1U G38U, which self-cleavage is on record?
A: 0.0843

Q: With A22C A40U as the variant, how does the self-cleavage read?
A: 0.152

Q: Which self-cleavage does the source give for A10U A30C here?
A: 0.784

Q: With A32C A34C as the variant, how does the self-cleavage read?
A: 0.329

Q: With G38A G44A as the variant, how does the self-cleavage read?
A: 0.897

Q: With C15U C26U as the variant, how does the self-cleavage read?
A: 0.117

Q: Which self-cleavage does the source give for C19A G43C here?
A: 0.317

Q: For A34G G39A, which self-cleavage is on record?
A: 0.133

Q: With C3A A22C as the variant, how does the self-cleavage read?
A: 0.115

Q: For G7C U12G, which self-cleavage is on record?
A: 0.0541

Q: For C3G A10G, which self-cleavage is on record?
A: 0.872

Q: Which self-cleavage does the source give for A4C U12G here?
A: 0.332

Q: Which self-cleavage does the source give for C25U G39C here?
A: 0.117

Q: For A33G G42U, which self-cleavage is on record?
A: 0.17

Q: With A23C G36C as the variant, how does the self-cleavage read?
A: 0.102

Q: For G39U G41A, which self-cleavage is on record?
A: 0.0926

Q: Which self-cleavage does the source give for G39U G41U here?
A: 0.149

Q: For C19U G39C, which self-cleavage is on record?
A: 0.0962

Q: With C8U U37G as the variant, how does the self-cleavage read?
A: 0.382

Q: With U31A C46U as the variant, how does the self-cleavage read?
A: 0.582

Q: For C9U G47A, which self-cleavage is on record?
A: 0.425

Q: For C8U G38C, which self-cleavage is on record?
A: 0.644

Q: For A11G U12C, which self-cleavage is on record?
A: 1.13

Q: For A35U G39C, which self-cleavage is on record?
A: 0.104

Q: Which self-cleavage does the source give for U18A A30U here?
A: 0.586

Q: Which self-cleavage does the source give for C20A G44A here?
A: 0.198

Q: Which self-cleavage does the source give for C14G A33G here?
A: 0.0896

Q: Which self-cleavage does the source give for C9G A32C here?
A: 0.195

Q: For A1U G7C, which self-cleavage is on record?
A: 0.0703

Q: Which self-cleavage does the source give for A23U G24C here?
A: 0.109

Q: For A23U C46U, which self-cleavage is on record?
A: 0.731

Q: For A1U G28U, which self-cleavage is on record?
A: 0.0658

Q: Which self-cleavage does the source give for G7U G17A here?
A: 0.0885

Q: With A2G C8G as the variant, how does the self-cleavage read?
A: 0.0347

Q: Which self-cleavage does the source give for C25G G39A here?
A: 0.101

Q: For C19U G24U, which self-cleavage is on record?
A: 0.0889

Q: Which self-cleavage does the source give for G41A G43A here?
A: 0.171

Q: For C21G G39A, which self-cleavage is on record?
A: 0.0549

Q: Which self-cleavage does the source give for C15A C21A here?
A: 0.133

Q: Which self-cleavage does the source give for G13A A34U here?
A: 0.64

Q: With A11G G45C as the variant, how does the self-cleavage read?
A: 0.343

Q: For A4C G39A, which self-cleavage is on record?
A: 0.101

Q: For A4C U6A, which self-cleavage is on record?
A: 0.0472

Q: Which self-cleavage does the source give for A10U G43U here?
A: 0.501

Q: With G24C G38U as the variant, how does the self-cleavage read?
A: 0.0774

Q: With A32C G43C as the variant, how does the self-cleavage read?
A: 0.153

Q: For C8G G24U, which self-cleavage is on record?
A: 0.747

Q: Which self-cleavage does the source give for G13A G45U here?
A: 0.539

Q: Which self-cleavage does the source give for G13A G17A here?
A: 0.121

Q: For G16C A33C, which self-cleavage is on record?
A: 0.427

Q: For U6G G29C, which self-cleavage is on record?
A: 0.139

Q: For A34G G43A, which self-cleavage is on record?
A: 0.136

Q: For A11C C26A, which self-cleavage is on record?
A: 0.183

Q: With C25U U37A as the variant, how does the self-cleavage read?
A: 0.392

Q: For C25U U37C, which self-cleavage is on record?
A: 0.133

Q: For A23U G38A, which self-cleavage is on record?
A: 0.342

Q: Which self-cleavage does the source give for U6G A23G here?
A: 0.0873

Q: With C3G A40C as the variant, how does the self-cleavage read?
A: 0.12

Q: For G39A G42C, which self-cleavage is on record?
A: 0.12

Q: With C15U G47U as the variant, how does the self-cleavage read?
A: 0.8

Q: Which self-cleavage does the source give for A4C G42U here?
A: 0.0422

Q: With C27A G42A as the variant, how does the self-cleavage read?
A: 0.0939

Q: Which self-cleavage does the source give for C3U G16C here?
A: 0.163

Q: For G39C C46U, which self-cleavage is on record?
A: 0.14

Q: For U6A G48C, which self-cleavage is on record?
A: 0.84

Q: For A33G G41C, which self-cleavage is on record?
A: 0.197

Q: Which self-cleavage does the source give for A40G G43A here?
A: 0.147

Q: Which self-cleavage does the source give for C5A C27A here?
A: 0.0839

Q: With G7C A33C as the variant, how does the self-cleavage read?
A: 0.0837

Q: With G28U U31G as the variant, how does the self-cleavage read?
A: 0.992

Q: With A11G A22C as the variant, how does the self-cleavage read?
A: 0.904

Q: With G41C C46U as the variant, how does the self-cleavage read?
A: 0.282

Q: With G7U C27A as the variant, how does the self-cleavage read?
A: 0.0728

Q: With U12A U31G as the variant, how does the self-cleavage read?
A: 0.961

Q: With A11U A22C as the variant, how does the self-cleavage read?
A: 1.17

Q: Which self-cleavage does the source give for U37A G45C here?
A: 0.323

Q: With C8U C25A as the variant, how does the self-cleavage read?
A: 0.0853

Q: For C5A G44U, which self-cleavage is on record?
A: 0.532

Q: With C27U G48A as the variant, how does the self-cleavage read?
A: 0.633

Q: With G38C A40G as the variant, how does the self-cleavage read?
A: 0.134

Q: Which self-cleavage does the source give for G38C A40C here?
A: 0.134

Q: For G16A C27A, which self-cleavage is on record?
A: 0.858

Q: Which self-cleavage does the source give for C27G G47U here?
A: 0.0917

Q: With U18C A32C as the variant, how does the self-cleavage read?
A: 0.486

Q: For A1U A10U, which self-cleavage is on record?
A: 0.0883

Q: With G13C C21U as the variant, how does the self-cleavage read?
A: 0.0571

Q: For C9U G41C, which self-cleavage is on record?
A: 0.128

Q: For C15G A34G, which self-cleavage is on record?
A: 0.103

Q: For A32C G47U, which self-cleavage is on record?
A: 0.783

Q: With A35G G45A as the variant, how does the self-cleavage read?
A: 0.889

Q: Which self-cleavage does the source give for C5A G36C here?
A: 0.519

Q: For U6C G28U, which self-cleavage is on record?
A: 0.295

Q: With A22G G42C as the variant, how does the self-cleavage read?
A: 0.0934

Q: Which self-cleavage does the source give for A11G C26G here?
A: 0.234

Q: For U12G G29U, which self-cleavage is on record?
A: 0.823

Q: Which self-cleavage does the source give for G24A G36C here?
A: 0.12

Q: With C9A G47U as the variant, how does the self-cleavage read?
A: 0.244

Q: For U18A G38A, which self-cleavage is on record?
A: 0.229

Q: With G16A A34C as the variant, how does the self-cleavage read?
A: 0.174

Q: With A2C U18A as the variant, how does the self-cleavage read?
A: 0.0761

Q: For A2C U18C, which self-cleavage is on record?
A: 0.0934

Q: With C19U A32U as the variant, how does the self-cleavage read?
A: 1.02

Q: For A33C G43A, which self-cleavage is on record?
A: 0.17

Q: With C19U G38U as the variant, how does the self-cleavage read?
A: 0.36

Q: Which self-cleavage does the source give for C20U C25U here?
A: 0.545

Q: Which self-cleavage does the source give for C20U C25G here?
A: 0.088

Q: With A22U A40C as the variant, how does the self-cleavage read?
A: 0.184

Q: For G17A G28C, which self-cleavage is on record?
A: 0.393

Q: Which self-cleavage does the source give for A11U G36C here?
A: 0.573

Q: Which self-cleavage does the source give for C46G G48U here?
A: 1.52

Q: Which self-cleavage does the source give for U18A A32U here?
A: 0.632

Q: With U6C A40C as the variant, how does the self-cleavage read?
A: 0.11

Q: Which self-cleavage does the source give for A22U C25A here?
A: 0.0894

Q: Which self-cleavage does the source give for A32U G41A here?
A: 0.488
